The record followed here is patent EP4582447A1 (Quaerite Biopharm Research (Beijing) Co., Ltd., dated 2025).

For experiment [1], the target named is T1, Human VEGFA165 (human, UniProt P15692-4 27-191).
T1 construct: treated as the same molecule; also called antigen VEGFA
Description: SPR, VEGFA165 on CM5.

The target of experiment [2] is T1, Human VEGFA165. Description: cell-based or functional assay.
Target sequence in this assay (P15692 other isoform, or with tags, fused parts or gaps limits assumed): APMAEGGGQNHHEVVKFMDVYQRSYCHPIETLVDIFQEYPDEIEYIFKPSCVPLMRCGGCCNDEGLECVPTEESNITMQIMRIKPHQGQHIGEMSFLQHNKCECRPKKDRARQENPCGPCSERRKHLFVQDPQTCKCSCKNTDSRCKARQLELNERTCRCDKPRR
Experiment [3] addresses T1, Human VEGFA165. The experiment in a line: ELISA, VEGFA coated 0.3 µg/mL, anti-His detection.
Target sequence in this assay (P15692 other isoform, or with tags, fused parts or gaps limits assumed): as above
Experiment [4] addresses T1, Human VEGFA165. Description: phage ELISA, VEGFA coated 0.5 µg/mL, anti-M13(HRP). Background: ELISA stands for enzyme-linked immunosorbent assay.
Target sequence in this assay (P15692 other isoform, or with tags, fused parts or gaps limits assumed): as above
A further experiment deals with T2, human VEGFA121 (human, UniProt P15692-9 27-147).
T2 sequence (looked up): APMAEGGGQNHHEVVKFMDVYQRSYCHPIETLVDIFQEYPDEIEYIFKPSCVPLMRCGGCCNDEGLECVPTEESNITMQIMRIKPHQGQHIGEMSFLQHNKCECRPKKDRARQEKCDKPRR
Description: ELISA, human VEGFA121 coated 0.3 µg/mL, anti-His detection.

Experiment [5] deals with 3% milk powder (negative control). Description: phage ELISA, 3% milk powder coated (negative control), anti-M13(HRP).
The target of experiment [6] is T1, Human VEGFA165. The experiment in a line: competition ELISA on coated VEGFA, competitor VEGFR2-ECD-Fc 1 nM.
Target sequence in this assay (P15692 other isoform, or with tags, fused parts or gaps limits assumed): as the sequence (P15692 other isoform, or with tags, fused parts or gaps limits assumed) above
Experiment [7] addresses T1, Human VEGFA165. Description: competition ELISA on coated VEGFA, competitor VEGFR2-ECD-Fc 2 nM.
Target sequence in this assay (P15692 other isoform, or with tags, fused parts or gaps limits assumed): as the sequence (P15692 other isoform, or with tags, fused parts or gaps limits assumed) above
Experiment [8] concerns the target T1, Human VEGFA165. Description: SPR Biacore 8K, VEGFA165 amine-coupled on CM5, nanobody as analyte, 1:1 model.
In experiment [9] the target is T1, Human VEGFA165. Described as above. This is another data set of the same source.
Target sequence in this assay (P15692 other isoform, or with tags, fused parts or gaps limits assumed): as the sequence (P15692 other isoform, or with tags, fused parts or gaps limits assumed) above
Experiment [10] has as its target T1, Human VEGFA165. The experiment in a line: SPR Biacore 8K, V1-SA1 amine-coupled on CM5, VEGFA165 as analyte, two state reaction model. On the technique in general: Surface plasmon resonance follows binding to a sensor surface in real time, without labels.
Experiment [11] has as its target T1, Human VEGFA165. The experiment in a line: SPR Biacore 8K, V1-SA1 amine-coupled on CM5, VEGFA165 as analyte, two state reaction model (ka1).
Experiment [12] concerns the target T1, Human VEGFA165. Description: SPR Biacore 8K, V1-SA1 amine-coupled on CM5, VEGFA165 as analyte, two state reaction model (kd1).
Experiment [13] has as its target T1, Human VEGFA165. Description: ELISA, VEGFA coated 0.3 µg/mL, anti-His detection. The source holds these as a separate data set.

Where two headings read alike, the source gives them in different places.

B1: V1 (VHH)
VHH: QLQLVESGGGSVQPGGSLRLSCEVSGRTFSSYTMGWFRQAPGKEREFVVAISKGGYKYDSVSLEARFTISKDNTKNTVYLQMNSLKPEDTAVYYCAATRAYGSSRLRLADTYEYWGQGTQVTVSS
notes: also called candidate antibody V1; antibody V1
One may read the EC50 as the midpoint of the concentration-response curve. The low end stands for a more potent agent, the high end for a less potent agent. What is called IC50 is the point on the concentration scale where inhibition reaches its midpoint. Lower therefore signals greater potency. The term Kd denotes the equilibrium constant for the complex coming apart. Higher therefore signals lower affinity. By koff is commonly meant the rate constant with which the complex falls apart. Low values mean a long-lived complex, high ones a short-lived complex. What is called kon is the second-order rate constant of association. Read a high kon as fast association. As for B1, the “fold difference of KD from the positive control BI-VEGF ab” value (“fold difference of KD” below) in the experiment with Human VEGFA165 [1] is less than 3 fold. In the experiment with Human VEGFA165 [2], the “IC50 (pM), inhibition of VEGFA-stimulated HUVEC proliferation (CCK-8)” value (shortened to “IC50 (pM), inhibition”) amounted to 2690 pM and the “Maximum inhibition rate (%) of HUVEC proliferation” value worked out at 103%. The molecule also came in with an EC50 with Human VEGFA165 [3] of 0.53 nM. For the same molecule, the OD450 with Human VEGFA165 [4] was determined as 2.31 OD450. Further, in the experiment with human VEGFA121, it took 1.27 nM to reach a half-maximal effect (EC50). This molecule had an OD450 in experiment [5] of 0.0377 OD450. Besides, in the experiment with Human VEGFA165 [6], the IC50 worked out at 5.59 nM and the “Maximum inhibition rate (%)” value was 90.5%. Besides, in the experiment with Human VEGFA165 [7], the IC50 was 26.4 nM and the “Maximum inhibition rate (%)” value stood at 95%. In the experiment with Human VEGFA165 [8], binding was characterised by a dissociation constant (Kd) of 0.247 nM, the koff came to 0.000101 s⁻¹ and the on-rate constant (kon) is 409000 M⁻¹ s⁻¹. Besides, in the experiment with Human VEGFA165 [9], the affinity, expressed as Kd, was 0.247 nM; the koff was determined as 0.000101 s⁻¹; the kon stood at 409000 M⁻¹ s⁻¹.

B2: V13 (VHH)
VHH: QLQLVESGGGSVQPGGSLRLSCEVSGRTFTSYTMGWFRQAPGKEREFVVAISKGGYKYDAVSLEARFTISKDNTKNTVYLQMNSLKPEDTAVYYCAGTRAYGSSRLRLADTYEYWGQGTQVTVSS
notes: Purified with C-terminal GGGGS-6×His; also called candidate antibody V13
As to B2, the “fold difference of KD” value in the experiment with Human VEGFA165 [1] is less than 3 fold. In the experiment with Human VEGFA165 [2], the “IC50 (pM), inhibition” value was found to be 3940 pM and the “Maximum inhibition rate (%) of HUVEC proliferation” value was 94.7%. In the experiment with Human VEGFA165 [4], this molecule gave an OD450 of 2.14 OD450. Besides, the OD450 in experiment [5] was found to be 0.0144 OD450. In the experiment with Human VEGFA165 [8], this molecule showed a Kd of 0.224 nM, a koff of 8.65e-05 s⁻¹ and a kon of 386000 M⁻¹ s⁻¹.

B3: V1-SA1 (VHH)
VHH: EVQLVESGGGLVQPGGSLRLSCAVSGRTFSSYTMGWFRQAPGKEREFVVAISKGGYKYDSVSLEARFTISRDNAKNTVYLQMNSLRPEDTAVYYCAATRAYGSSRLRLADTYEYWGQGTLVTVSS
notes: Humanized V1; also called humanized antibody V1-SA1; monovalent nanobody V1-SA1
Consider B3, for which, in the experiment with Human VEGFA165 [7], the IC50 worked out at 22.5 nM and the “Maximum inhibition rate (%)” value worked out at 94.6%. In the experiment with Human VEGFA165 [10], the Kd came out at 4.38 nM. In addition, the kon in the experiment with Human VEGFA165 [11] was 1.06e+06 M⁻¹ s⁻¹. For the same molecule, the koff with Human VEGFA165 [12] turned out to be 0.0598 s⁻¹.

B4: V15 (VHH)
VHH: QLQLVESGGGSVQPGGSLRLSCEVSGRTFASYTMGWFRQAPGKEREFVVAISKGGYKYDSVSLEARFTISKDNTKNTVYLQMNSLKPEDTAVYYCAGTRAYGSSRLRLAETYEYWGQGTQVTVSS
notes: Purified with C-terminal GGGGS-6×His; also called candidate antibody V15
In the case of B4, in the experiment with Human VEGFA165 [1], the “fold difference of KD” value was less than 3 fold. Moreover, in the experiment with Human VEGFA165 [2], the “IC50 (pM), inhibition” value came out at 7120 pM and the “Maximum inhibition rate (%) of HUVEC proliferation” value came out at 84.2%. Moreover, in the experiment with Human VEGFA165 [3], the midpoint of the response, the EC50, lay at 0.89 nM. The OD450 with Human VEGFA165 [4] was 1.87 OD450. In experiment [5], the OD450 turned out to be 0.0126 OD450. In addition, in the experiment with Human VEGFA165 [6], the IC50 is 3.89 nM and the “Maximum inhibition rate (%)” value amounted to 94.6%. Besides, in the experiment with Human VEGFA165 [7], the IC50 was found to be 29.3 nM and the “Maximum inhibition rate (%)” value was 71.6%. Besides, in the experiment with Human VEGFA165 [8], the affinity, expressed as Kd, was 0.277 nM; the koff stood at 9.61e-05 s⁻¹; the kon was 347000 M⁻¹ s⁻¹.

B5: linear tandem bivalent nanobody 2V15-9GS (VHH)
chain: QLQLVESGGGSVQPGGSLRLSCEVSGRTFASYTMGWFRQAPGKEREFVVAISKGGYKYDSVSLEARFTISKDNTKNTVYLQMNSLKPEDTAVYYCAGTRAYGSSRLRLAETYEYWGQGTQVTVSSGGGGSGGGSQLQLVESGGGSVQPGGSLRLSCEVSGRTFASYTMGWFRQAPGKEREFVVAISKGGYKYDSVSLEARFTISKDNTKNTVYLQMNSLKPEDTAVYYCAGTRAYGSSRLRLAETYEYWGQGTQVTVSS
notes: no further tag added here
In the experiment with Human VEGFA165 [13], B5 gave an EC50 of 0.25 nM.
